Laboratory results taken from patent US20180142038A1.

Key:
[1] = target: Ab-A lot 9 (load; eluate from a ceramic hydroxyapatite column); test: AGV HTRF assay as in Example 6, load of the Ab-1 NHS Sepharose column
[2] = target: Ab-A lot 9 (load; eluate from a ceramic hydroxyapatite column); test: AGV HTRF assay as in Example 6, load of the Ab-1 Streptavidin Plus Ultralink column
[3] = target: Ab-A lot 9, pooled flow-through of the Ab-1 functionalized GE NHS-activated Sepharose 4 Fast Flow resin; test: AGV HTRF assay as in Example 6, pooled flow-through of the Ab-1 NHS Sepharose column
[4] = target: Ab-A lot 9, pooled flow-through of the Ab-1 functionalized Pierce Streptavidin Plus Ultralink resin; test: AGV HTRF assay as in Example 6, pooled flow-through of the Ab-1 Streptavidin Plus Ultralink column
Ab-A lot 1 = test: AGV HTRF assay (antibody 3 nM, antigen 1 nM, Eu anti-rabbit Fc donor, anti-human XL665 acceptor), signal relative to Ab-A lot 2

B1: Ab1 (antibody, V domains shown)
VH: QEQLVESGGGLVQPGASLTLTCTASGFSFSNTNYMCWVRQAPGRGLEWVGCMPVGFIASTFYATWAKGRSAISKSSSTAVTLQMTSLTVADTATYFCARESGSGWALNLWGQGTLVTVSS
VL: DPVLTQTPSPVSAAVGGTVTISCQASESVESGNWLAWYQQKPGQPPKLLIYYTSTLASGVPSRFKGSGSGAHFTLTISGVQCDDAATYYCQGAFYGVNTFGGGTEVVVKR
Glycovariant signal in Load (POC) [1]: 9.3 POC | Glycovariant signal in Load (POC) [2]: 9.3 POC | Glycovariant signal in Flow-Through (POC) [3]: 6.3 POC | Glycovariant signal in Flow-Through (POC) [4]: 1.2 POC | percentage of control (POC), against Ab-A lot 2 (% of control (POC)) (Ab-A lot 1): 25
